Data published in the supplement of paper PMC11908140.

B1: library; numbered along this chain (parent)
chain: MRKPRAAVGSGHRKQAASQEGRQKHAKNNSQAKPSACDGLARQPEEVVLQASVSSYHLFRDVAEVTAFRGSLLSWYDQEKRDLPWRRRAEDEMDLDRRAYAVWVSEVMLQQTQVATVINYYTGWMQKWPTLQDLASASLEEVNQLWAGLGYYSRGRRLQEGARKVVEELGGHMPRTAETLQQLLPGVGRYTAGAIASIAFGQATGVVDGNVARVLCRVRAIGADPSSTLVSQQLWGLAQQLVDPARPGDFNQAAMELGATVCTPQRPLCSQCPVESLCRARQRVEQEQLLASGSLSGSPDVEECAPNTGQCHLCLPPSEPWDQTLGVVNFPRKASRKPPREESSATCVLEQPGALGAQILLVQRPNSGLLAGLWEFPSVTWEPSEQLQRKALLQELQRWAGPLPATHLRHLGEVVHTFSHIKLTYQVYGLALEGQTPVTTVPPGARWLTQEEFHTAAVSTAMKKVFRVYQGQQPGTCMGSKRSQVSSPCSRKKPRMGQQVLDNFFRSHISTDAHSLNSAAQ

Variants of: B1
Assay: 8OG:A repair function score (normalized; synonymous = 0, nonsense = -1) (normalized log-likelihood score); higher = more repair activity (WT-like)
Conditions: with 8OG:A DNA repair reporter (GFP) in HEK-293 MUTYH KO cells
Outline: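 Per-tile Rosace fitness scores were converted to a normalized repair function score anchored on synonymous and nonsense distributions. That scale puts synonymous medians at 0 and nonsense medians at -1. Variants with starting counts under 300 counts per million were discarded. Input came from sorting viable mCherry+ MUTYH knockout HEK-293 cells, carrying lentiviral MUTYH cDNA NNN codon-scan libraries in 10 pg/ml doxycycline and an 8OG:A GFP repair reporter, into GFP+ and GFP− bins at 72 h, three replicates per tile, followed by tile amplicon sequencing.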
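Note: cells sorted at 72 h after reporter transfection.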

Row | Variant | 8OG:A repair function score
1 | MRKPRAAVGSGHRKQAASQEGRQKHAKNNSQAKPSACDGLARQPEEVVLQASVSSYHLFRDVAEVTAFRGSLLSWYDQEKRDLPWRRRAEDEMDLDRRAYAVWVSEVMLQQTQVATVINYYTGWMQKWPTLQDLASASLEEVNQLWAGLGYYSRGRRLQEGARKVVEELGGHMPRTAETLQQLLPGVGRYTAGAIASIAFGQATGVVDGNVARVLCRVRAIGADPSSTLVSQQLWGLAQQLVDPARPGDFNQAAMELGATVCTPQRPLCSQCPVESLCRARQRVEQEQLLASGSLSGSPDVEECAPNTGQCHLCLPPSEPWDQTLGVVNFPRKASRKPPREESSATCVLEQPGALGAQILLVQRPNSGLLAGLWEFPSVTWEPSEQLQRKALLQELQRWAGPLPATHLRHLGEVVHTFSHIKLTYQVYGLALEGQTPVTTVPPGARWLTQEEFHTAAVSTAMKKVFRVYQGQQPGTCMGSKRSQVSSPCSRKKPRMGQQVLDNFFRSHQSTDAHSLNSAAQ [I509Q] | 0.0194
2 | MRKPRAAVGSGHRKQAASQEGRQKHAKNNSQAKPSACDGLARQPEEVVLQASVSSYHLFRDVAEVTAFRGSLLSWYDQEKRDLPWRRRAEDEMDLDRRAYAVWVSEVMLQQTQVATVINYYTGWMQKWPTLQDLASASLEEVNQLWAGLGYYSRGRRLQEGARKVVEELGGHMPRTAETLQQLLPGVGRYTAGAIASIAFGQATGVVDGNVARVLCRVRAIGADPSSTLVSQQLWGLAQQLVDPARPGDFNQAAMELGATVCTPQRPLCSQCPVESLCRARQRVEQEQLLASGSLSGSPDVEECAPNTGQCHLCLPPSEPWDQTLGVVNFPRKASRKPPREESSATCVLEQPGALGAQILLVQRPNSGLLAGLWEFPSVTWEPSEQLQRKALLQELQRWAGPLPATHLRHLGEVVHTFSHIKLTYQVYGLALEGQTPVTTVPPGARWLTQEEFHTAAVSTAMKKVFRVYQGQQPGTCMGSKRSQVSSPCSRKKPRMGQQVLDNFFRSHWSTDAHSLNSAAQ [I509W] | -0.00561
3 | MRKPRAAVGSGHRKQAASQEGRQKHAKNNSQAKPSACDGLARQPEEVVLQASVSSYHLFRDVAEVTAFRGSLLSWYDQEKRDLPWRRRAEDEMDLDRRAYAVWVSEVMLQQTQVATVINYYTGWMQKWPTLQDLASASLEEVNQLWAGLGYYSRGRRLQEGARKVVEELGGHMPRTAETLQQLLPGVGRYTAGAIASIAFGQATGVVDGNVARVLCRVRAIGADPSSTLVSQQLWGLAQQLVDPARPGDFNQAAMELGATVCTPQRPLCSQCPVESLCRARQRVEQEQLLASGSLSGSPDVEECAPNTGQCHLCLPPSEPWDQTLGVVNFPRKASRKPPREESSATCVLEQPGALGAQILLVQRPNSGLLAGLWEFPSVTWEPSEQLQRKALLQELQRWAGPLPATHLRHLGEVVHTFSHIKLTYQVYGLALEGQTPVTTVPPGARWLTQEEFHTAAVSTAMKKVFRVYQGQQPGTCMGSKRSQVSSPCSRKKPRMGQQVLDNFFRSHYSTDAHSLNSAAQ [I509Y] | -0.0704
4 | MRKPRAAVGSGHRKQAASQEGRQKHAKNNSQAKPSACDGLARQPEEVVLQASVSSYHLFRDVAEVTAFRGSLLSWYDQEKRDLPWRRRAEDEMDLDRRAYAVWVSEVMLQQTQVATVINYYTGWMQKWPTLQDLASASLEEVNQLWAGLGYYSRGRRLQEGARKVVEELGGHMPRTAETLQQLLPGVGRYTAGAIASIAFGQATGVVDGNVARVLCRVRAIGADPSSTLVSQQLWGLAQQLVDPARPGDFNQAAMELGATVCTPQRPLCSQCPVESLCRARQRVEQEQLLASGSLSGSPDVEECAPNTGQCHLCLPPSEPWDQTLGVVNFPRKASRKPPREESSATCVLEQPGALGAQILLVQRPNSGLLAGLWEFPSVTWEPSEQLQRKALLQELQRWAGPLPATHLRHLGEVVHTFSHIKLTYQVYGLALEGQTPVTTVPPGARWLTQEEFHTAAVSTAMKKVFRVYQGQQPGTCMGSKRSQVSSPCSRKKPRMGQQVLDNFFRSHSSTDAHSLNSAAQ [I509S] | 0.0252
5 | MRKPRAAVGSGHRKQAASQEGRQKHAKNNSQAKPSACDGLARQPEEVVLQASVSSYHLFRDVAEVTAFRGSLLSWYDQEKRDLPWRRRAEDEMDLDRRAYAVWVSEVMLQQTQVATVINYYTGWMQKWPTLQDLASASLEEVNQLWAGLGYYSRGRRLQEGARKVVEELGGHMPRTAETLQQLLPGVGRYTAGAIASIAFGQATGVVDGNVARVLCRVRAIGADPSSTLVSQQLWGLAQQLVDPARPGDFNQAAMELGATVCTPQRPLCSQCPVESLCRARQRVEQEQLLASGSLSGSPDVEECAPNTGQCHLCLPPSEPWDQTLGVVNFPRKASRKPPREESSATCVLEQPGALGAQILLVQRPNSGLLAGLWEFPSVTWEPSEQLQRKALLQELQRWAGPLPATHLRHLGEVVHTFSHIKLTYQVYGLALEGQTPVTTVPPGARWLTQEEFHTAAVSTAMKKVFRVYQGQQPGTCMGSKRSQVSSPCSRKKPRMGQQVLDNFFRSHTSTDAHSLNSAAQ [I509T] | 0.026
6 | MRKPRAAVGSGHRKQAASQEGRQKHAKNNSQAKPSACDGLARQPEEVVLQASVSSYHLFRDVAEVTAFRGSLLSWYDQEKRDLPWRRRAEDEMDLDRRAYAVWVSEVMLQQTQVATVINYYTGWMQKWPTLQDLASASLEEVNQLWAGLGYYSRGRRLQEGARKVVEELGGHMPRTAETLQQLLPGVGRYTAGAIASIAFGQATGVVDGNVARVLCRVRAIGADPSSTLVSQQLWGLAQQLVDPARPGDFNQAAMELGATVCTPQRPLCSQCPVESLCRARQRVEQEQLLASGSLSGSPDVEECAPNTGQCHLCLPPSEPWDQTLGVVNFPRKASRKPPREESSATCVLEQPGALGAQILLVQRPNSGLLAGLWEFPSVTWEPSEQLQRKALLQELQRWAGPLPATHLRHLGEVVHTFSHIKLTYQVYGLALEGQTPVTTVPPGARWLTQEEFHTAAVSTAMKKVFRVYQGQQPGTCMGSKRSQVSSPCSRKKPRMGQQVLDNFFRSHVSTDAHSLNSAAQ [I509V] | 0.0164
